# Measured values published in patent publication US20220403048A1, “BINDING MOLECULES TO ARGINASE II [ARG2]” (Cancer Research Technology Limited, priority 2019, published 2022).
# T1: human ARG2 (Homo sapiens, UniProt P78540, E275H/R327K)
# T1 construct: His10 (after a GGG linker) (C); made in house; host or cells: E. coli BL21 (DE3)
# T1 sequence (P78540 23-354 E275H/R327K): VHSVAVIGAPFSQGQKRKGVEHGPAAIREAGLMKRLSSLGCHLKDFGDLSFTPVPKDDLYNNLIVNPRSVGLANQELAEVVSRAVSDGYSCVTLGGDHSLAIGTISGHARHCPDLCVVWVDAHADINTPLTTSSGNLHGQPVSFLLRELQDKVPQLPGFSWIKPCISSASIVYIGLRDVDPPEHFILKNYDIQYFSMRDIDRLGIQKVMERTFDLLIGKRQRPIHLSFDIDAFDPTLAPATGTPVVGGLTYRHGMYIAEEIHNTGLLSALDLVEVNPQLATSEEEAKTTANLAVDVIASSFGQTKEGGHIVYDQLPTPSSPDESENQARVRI
# T2: human ARG1 (Homo sapiens, UniProt P05089)
# T2 construct: Avi tag (N); His10 (after a GGG linker) (C); made in house; host or cells: E. coli BL21 (DE3)
# T2 sequence (P05089 with tags, fused parts or gaps): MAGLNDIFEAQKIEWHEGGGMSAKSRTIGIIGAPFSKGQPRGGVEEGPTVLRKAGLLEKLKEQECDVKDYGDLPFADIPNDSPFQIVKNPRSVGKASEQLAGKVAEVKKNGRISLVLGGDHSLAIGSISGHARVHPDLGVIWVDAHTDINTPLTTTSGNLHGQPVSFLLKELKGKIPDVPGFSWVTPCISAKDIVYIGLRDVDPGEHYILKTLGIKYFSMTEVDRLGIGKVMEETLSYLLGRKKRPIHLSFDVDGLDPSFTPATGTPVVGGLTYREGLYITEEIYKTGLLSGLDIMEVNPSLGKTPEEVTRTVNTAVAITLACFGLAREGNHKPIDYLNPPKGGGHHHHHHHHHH
# Legend:
# [1] = test system: cynomolgus ARG2; assay: Bio-Layer Interferometry (OctetRED) binding kinetics, cynomolgus ARG2; settings: Fab as analyte; cyno ARG2 ligand; affinity-matured antibodies
# Source text: (§1) The OctetRED (Pall ForteBio) instrument was used to assess the kinetic parameters of the interactions between C0020187 and recombinantly produced human ARG2, cynomolgus ARG2 and human ARG1. The Octet biosensor uses an optical analytical technique that analyses the interference pattern of white light reflected from two surfaces: a layer of immobilised protein on the sensor tip, and an internal reference layer. Any changes in binding at the biosensor tip result in a shift in interference pattern, which can be measured in real time. Molecules associating with or dissociating from ligands at the biosensor tip shift the interference pattern and generate a response on the Octet system which is recorded by the acquisition software.
# (§2) Typically, a defined concentration of the analyte species is brought into contact with the coupled ligand and any binding is detected as an increased in signal (association phase). This is followed by a period of buffer rinse, during which dissociation of the analyte species from the surface immobilised ligand can be observed as a decrease in signal (dissociation phase). Repetition of this with a range of analyte concentrations provides data for the analysis of binding kinetics.
# (§3) An Octet Kinetics Buffer (PBS containing 0.01% BSA and 0.002% Tween20) is typically used as the diluent buffer for the analyte samples and as the flow buffer during the dissociation phase. The experimental data is recorded over time as shift in interference pattern (nm) over time, which is directly proportional to the optical thickness at the biosensor tip, which in turn is an approximate measure of the mass of analyte bound. The proprietary Octet Data Analysis software package can then be used to process data and fit binding models to the data sets. Returned association (ka, M^−1 s^−1) and dissociation (kd, s^−1) rate constants allow calculation of dissociation (KD, M) affinity constants.
# (§4) The affinity of binding between the Fab of C0020187 and human ARG2, cynomolgus ARG2 and human ARG1 was estimated using assays in which the biotinylated ARG antigen was captured on a streptavidin sensor tip. A fresh sensor tip was used for each measurement and no regeneration was used. A series of dilutions of the C0020187 Fab (3.25-240 nM) were individually placed in contact with the ligand surface for a sufficient amount of time to observe sensorgrams that could be fitted to an appropriate binding model with confidence (typically 5 minutes), followed by an appropriate length of dissociation time (typically 10 minutes). Blank reference (0 nM Fab) data were subtracted from each dataset to reduce the impact of any buffer artefacts or non-specific binding effects. An appropriate binding model was then fitted simultaneously to the data from each analyte titration using the Octet Evaluation software.
# (§5) Example results for C0020187 are shown in Table 9, showing the association rate constants (ka), dissociation rate constants (kd) and dissociation constants (KD). These parameters were derived from a 1:1 binding fit to the data.
# (§6) The affinities of the affinity-matured antibodies to human ARG2 were measured on the OctetRED system as described in section 1.15 using the streptavidin capture method. Typically, an analyte titration range of 1.8 to 120 nM was used.
# The affinities of some of these antibodies to cynomolgus ARG2 were determined using the same assay, and the derived kinetic parameters are shown in Table 21.
# [2] = biological target: T1, human ARG2; assay: Bio-Layer Interferometry (OctetRED) binding kinetics, human ARG2; settings: Fab as analyte; streptavidin capture; analyte 1.8 to 120 nM; affinity-matured antibodies
# Source text: as §1, §2, §3, §4, §5, §6
# The affinities of the second-generation antibodies to human ARG2 were measured on the OctetRED system. A screening assay which stably captures His-tagged ARG2 as the ligand on an anti-His surface was utilised to screen the second-generation candidates as Fabs at an analyte range of 1.8 to 120 nM, with an association time of 5 minutes and a dissociation time of 10 minutes. Sensors were regenerated using 10 mM glycine pH 1.5 after each cycle. Based on this assay, six candidates with estimated affinities in the sub-nanomolar range were identified, and they were further profiled using an extended assay which is more suitable for antibodies of high affinities. […]
# [3] = biological target: T2, human ARG1; assay: Bio-Layer Interferometry (OctetRED) binding, human ARG1; settings: Fab analyte up to 120 nM, screening assay on anti-His surface
# Description: as §4
# (§7) The binding of affinity-matured antibodies to human ARG1 was also tested on the OctetRED system using a screening assay which stably captures […] as the ligand on an anti-His surface. The Fabs were typically tested in an analyte range of 1.8 to 120 nM, with an association time of 5 minutes and a dissociation time of 10 minutes. Sensors were regenerated using 10 mM glycine pH 1.5 after each cycle.
# as §7, with “Binding” for “The binding”, “the second-generation” for “affinity-matured”, “ARG” for “ARG1”, “were” for “were typically”, “as” for “in an”, “up” for “range of 1.8”
# cynomolgus ARG2, sequence (as listed by the source): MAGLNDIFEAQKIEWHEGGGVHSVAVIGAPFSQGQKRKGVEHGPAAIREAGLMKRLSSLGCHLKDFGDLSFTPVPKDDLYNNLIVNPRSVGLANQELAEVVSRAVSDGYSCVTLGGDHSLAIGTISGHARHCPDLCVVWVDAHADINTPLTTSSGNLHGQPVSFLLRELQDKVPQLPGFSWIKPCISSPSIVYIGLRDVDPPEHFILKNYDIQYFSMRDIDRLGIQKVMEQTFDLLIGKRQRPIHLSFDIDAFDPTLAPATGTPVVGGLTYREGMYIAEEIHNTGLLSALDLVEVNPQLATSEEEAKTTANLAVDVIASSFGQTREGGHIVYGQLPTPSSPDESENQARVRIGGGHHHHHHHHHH
molecule,measurement,setting,value
"C0021128: anti-ARG2 antibody, VH SEQ ID NO: 162, VL SEQ ID NO: 167 (antibody, listed as Homo sapiens, V domains shown, C0021128) VH: EVQLLESGGGLVQPGGSLRLSCAASGFTFQYEVAAWVRQAPGKGLEWVSAISGPIPKGYYADSVKGRFTISRDNSKNTLYLQMNSLRAEDTAVYYCARLRADLGLYMDLWGRGTLVTVSS VL: QSVLTQPPSVSAAPGQKVTISCSGSSSNIGNHYVSWYQQLPGTAPKLLIYDNAIESSGIPDRFSGSKSGTSATLGITGLQTGDGADYYCGTWDSNLSALVFGGGTKLTVL",ka,[1],437000 M⁻¹ s⁻¹
same,kd,[1],0.000771 s⁻¹
same,ka,[2],266000 M⁻¹ s⁻¹
same,kd,[2],0.000674 s⁻¹
same,"Results, binding to human ARG1 (BLI)",[3],No binding observed
